Data reported in publication PMC8792056 (2022).

B1: DNAJB14-FL-FLAG [human] / DNAJB12-FL-mOrange [human] (parent complex)
chain 1: MEGNRDEAEKCVEIAREALNAGNREKAQRFLQKAEKLYPLPSARALLEIIMKNGSTAGNSPHCRKPSGSGDQSKPNCTKDSTSGSGEGGKGYTKDQVDGVLSINKCKNYYEVLGVTKDAGDEDLKKAYRKLALKFHPDKNHAPGATDAFKKIGNAYAVLSNPEKRKQYDLTGNEEQACNHQNNGRFNFHRGCEADITPEDLFNIFFGGGFPSGSVHSFSNGRAGYSQQHQHRHSGHEREEERGDGGFSVFIQLMPIIVLILVSLLSQLMVSNPPYSLYPRSGTGQTIKMQTENLGVVYYVNKDFKNEYKGMLLQKVEKSVEEDYVTNIRNNCWKERQQKTDMQYAAKVYRDDRLRRKADALSMDNCKELERLTSLYKGG
chain 2: MESNKDEAERCISIALKAIQSNQPDRALRFLEKAQRLYPTPRVRALIESLNQKPQTAGDQPPPTDTTHATHRKAGGTDAPSANGEAGGESTKGYTAEQVAAVKRVKQCKDYYEILGVSRGASDEDLKKAYRRLALKFHPDKNHAPGATEAFKAIGTAYAVLSNPEKRKQYDQFGDDKSQAARHGHGHGDFHRGFEADISPEDLFNMFFGGGFPSSNVHVYSNGRMRYTYQQRQDRRDNQGDGGLGVFVQLMPILILILVSALSQLMVSSPPYSLSPRPSVGHIHRRVTDHLGVVYYVGDTFSEEYTGSSLKTVERNVEDDYIANLRNNCWKEKQQKEGLLYRARYFGDTDMYHRAQKMGTPSCSRLSEVQASLHG

Variants of: B1
Assay: co-IP (IP: FLAG, WB: mOrange), densitometry with Fiji; HEK293T cells; n = 3 biologically independent samples; parent: 2.7; read off a plot

response | Variant
~7.2 [ORANGE]/[FLAG] | chain 1 H136Q
